Results from patent publication US20250073303A1, “TDP-43 Interference Peptides, Methods, and Uses Thereof” (The University of British Columbia, priority 2022, published 2025).

Tests used:
TDP-43 [1] = biological target: TDP-43 (Homo sapiens, UniProt Q13148); assay: Sodium arsenite induced TDP-43 and phosphoTDP-43 accumulation and PARP cleavage in SH-SY5Y cells; assay type: cell-based; conditions: 1 mM sodium arsenite for 3 hours
Method: FIG. 5. Synthetic peptides derived from CK-1δ block TDP-43 phosphorylation, aggregation and partially rescue cell death in different cellular models. […] DAPI (Blue) staining was used to determine nuclear localization. […] Representative immunoblots showing efficient siRNA knockdown of CK-1δ in SH-SY5Y cells. […] (C) Representative immunoblots showing effective blocking of TDP-43 phosphorylation and aggregation by 20 μM peptide mixture in SH-SY5Y cells, but not in HEK293 cells with ethacrynic acid (EA) treatment. (D) Dose response of peptide mixture on blocking TDP-43 aggregation in primary cultured neurons treated with 20 μM ethacrynic acid. Quantification of insoluble TDP-43 expression was shown on the right. […] The significance among the groups was calculated by one-way ANOVA, *p<0.05. The statistical significance of the difference between scramble peptides and peptide mixture groups was calculated by student's t test, #p<0.05. […] Significant differences among the groups was calculated by One-way ANOVA, *p<0.05. Significance between scramble peptides and peptide mixture group was calculated by student's t test, #p<0.05. (G) Peptide D and the peptide mixture reduces TDP-43 phosphorylation and aggregation in SH-SY5Y cells following sodium arsenite treatment. […] TDP-43, phosphoTDP-43, PARP, and actin in the soluble and insoluble fraction were analyzed by western blotting. […]

TDP-43 [2] = biological target: T1, TDP-43 (Mus musculus, UniProt Q921F2); assay: LPS (1 mg/kg daily, 7 days) plus sciatic nerve axotomy in mice: TDP-43 aggregation by western blotting; assay type: in vivo; design: from tissue; host or cells: ventral lumbosacral spinal cord of mice, axotomy side; conditions: LPS 1 mg/kg daily i.p. for 7 days plus axotomy; 20 mg/kg i.p.; vs control mice
T1 sequence (Q921F2 whole entry): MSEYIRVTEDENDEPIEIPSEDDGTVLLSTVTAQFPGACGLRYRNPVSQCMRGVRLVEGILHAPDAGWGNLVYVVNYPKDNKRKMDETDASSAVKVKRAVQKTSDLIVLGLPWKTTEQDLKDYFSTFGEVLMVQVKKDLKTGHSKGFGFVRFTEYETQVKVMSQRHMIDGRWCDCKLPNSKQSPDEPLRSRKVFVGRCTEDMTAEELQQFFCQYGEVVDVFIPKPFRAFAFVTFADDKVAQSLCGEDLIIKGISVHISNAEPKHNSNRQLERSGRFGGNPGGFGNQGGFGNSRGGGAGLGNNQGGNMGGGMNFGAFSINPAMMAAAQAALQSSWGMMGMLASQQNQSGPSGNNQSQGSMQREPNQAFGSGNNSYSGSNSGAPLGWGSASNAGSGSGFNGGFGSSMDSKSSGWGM
Method: FIG. 17: Example peptide D reduces TDP-43 aggregates in lumbar spinal cord of mice with sciatic nerve axotomy and 7 days of LPS administration. Mice underwent sciatic nerve axotomy (day 0) and LPS (1 mg/kg, daily, i.p.) administration for 7 days (days 0-7). TDP-43 aggregation in lumbar spinal cord was evaluated by western blotting.
Since LPS causes systematic inflammation, microglia activation in ventral horn of spinal cord was first detected by staining with an Iba-1 antibody. […] In this setting, motor neuron loss in the lower limb motoneuron group in L5/6 of spinal cord was observed, as confirmed by staining with ChAT and NeuN antibodies. […] TDP-43 and phosphoTDP-43 insolubility in lumbar spinal cord was also confirmed by western blotting.

TDP-43 [3] = biological target: T1, TDP-43; assay: LPS (5 mg/kg) plus sciatic nerve axotomy in mice: TDP-43 and phosphoTDP-43 aggregates; assay type: in vivo; design: from tissue; host or cells: ventral lumbosacral spinal cord of mice, axotomy side; conditions: LPS 5 mg/kg i.p. plus axotomy, day 3 post-surgery, 10 and 20 mg/kg once daily i.p.
Method: FIG. 13: Example peptide D dose dependently reduces TDP-43 and phosphoTDP-43 aggregates in lumbar spinal cord of mice with LPS plus sciatic nerve axotomy. Western blot analysis of TDP-43 and phosphoTDP-43 expression in the soluble and insoluble fraction of ipsilateral lumbar spinal cord tissue that was collected in mice three days post LPS (5 mg/kg) plus sciatic nerve axotomy procedure. Group 1: Non-surgical mice. Group 2: Control mice with LPS plus sciatic nerve axotomy. Group 3: 10 mg/kg of peptide D treatment (once daily, i.p.) in mice with LPS treatment plus sciatic nerve axotomy. Group 4: 20 mg/kg of peptide D treatment (once daily, i.p.) in mice with LPS treatment plus sciatic nerve axotomy.
This mouse model was further optimized by adding one dose of lipopolysaccharide (LPS) injection (5 mg/kg, i.p.) when performing surgery. LPS injection aggravated the observed TDP-43 proteinopathy as assessed at day 3 post-surgery.

Chain of TDP-43 (Homo sapiens, UniProt Q13148) (Q13148 whole entry): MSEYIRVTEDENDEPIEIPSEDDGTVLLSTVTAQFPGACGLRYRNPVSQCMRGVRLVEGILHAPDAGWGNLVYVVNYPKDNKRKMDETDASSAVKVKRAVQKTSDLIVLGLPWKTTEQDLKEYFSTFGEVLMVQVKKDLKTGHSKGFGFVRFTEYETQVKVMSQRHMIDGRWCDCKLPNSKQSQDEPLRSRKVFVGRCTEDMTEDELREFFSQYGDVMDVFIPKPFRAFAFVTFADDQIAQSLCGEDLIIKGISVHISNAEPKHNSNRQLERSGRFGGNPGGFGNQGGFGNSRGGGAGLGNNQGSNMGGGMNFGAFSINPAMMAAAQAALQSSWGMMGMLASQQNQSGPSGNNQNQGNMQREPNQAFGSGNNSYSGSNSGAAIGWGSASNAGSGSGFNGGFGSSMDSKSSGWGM

## peptide D: candidate peptide from a CK-1δ binding region for TDP-43, truncated HIV-1 TAT domain added at the N-terminal (YGRKKRRQRRRGFSYDYVFDWNMLK)
TDP-43 [1]
  PARP cleavage caused by sodium arsenite: less PARP cleavage
  insoluble TDP-43 and phosphoTDP-43: reducing
TDP-43 [2]
  TDP-43 aggregation in lumbar spinal cord: reduced
TDP-43 [3]
  TDP-43 and phosphoTDP-43 aggregation: reduced TDP-43 and phosphoTDP-43 aggregation in a dose dependent manner
